Measurements taken from the MegaScale stability set (Tsuboyama et al. 2023).

B1: EEHEE_rd4_0003 (parent)
chain: KKVTINGVEIKFNNPEEAVKFALELAKRLNLRIEFHGDQIKIE

Variants of: B1
Test: folding stability dG (cDNA display proteolysis); higher = more stable
Settings: PBS, room temperature

Variant | folding stability dG
KKVTINGVEIKFNNPEEAVKFALELAKRLNLRIEFHGDQPKIE [I40P] | 1.24 kcal/mol
KKVTINGVEIKFNNPEEAVKFALELAKRLNLRIEFHGDQQKIE [I40Q] | 1.39 kcal/mol
KKVTINGVEIKFNNPEEAVKFALELAKRLNLRIEFHGDQRKIE [I40R] | 1.25 kcal/mol
KKVTINGVEIKFNNPEEAVKFALELAKRLNLRIEFHGDQSKIE [I40S] | 1.43 kcal/mol
KKVTINGVEIKFNNPEEAVKFALELAKRLNLRIEFHGDQTKIE [I40T] | 1.51 kcal/mol
KKVTINGVEIKFNNPEEAVKFALELAKRLNLRIEFHGDQVKIE [I40V] | 2.07 kcal/mol
KKVTINGVEIKFNNPEEAVKFALELAKRLNLRIEFHGDQWKIE [I40W] | 2.02 kcal/mol
KKVTINGVEIKFNNPEEAVKFALELAKRLNLRIEFHGDQYKIE [I40Y] | 1.64 kcal/mol
KKVTINGVEIKFNNPEEAVKFALELAKRLNLRIEFHGDQIAIE [K41A] | 2.36 kcal/mol
KKVTINGVEIKFNNPEEAVKFALELAKRLNLRIEFHGDQICIE [K41C] | 3.17 kcal/mol
KKVTINGVEIKFNNPEEAVKFALELAKRLNLRIEFHGDQIDIE [K41D] | 1.91 kcal/mol
KKVTINGVEIKFNNPEEAVKFALELAKRLNLRIEFHGDQIEIE [K41E] | 2.1 kcal/mol
KKVTINGVEIKFNNPEEAVKFALELAKRLNLRIEFHGDQIFIE [K41F] | 3 kcal/mol
KKVTINGVEIKFNNPEEAVKFALELAKRLNLRIEFHGDQIGIE [K41G] | 1.73 kcal/mol
KKVTINGVEIKFNNPEEAVKFALELAKRLNLRIEFHGDQIHIE [K41H] | 2.49 kcal/mol
KKVTINGVEIKFNNPEEAVKFALELAKRLNLRIEFHGDQIIIE [K41I] | 3.21 kcal/mol
KKVTINGVEIKFNNPEEAVKFALELAKRLNLRIEFHGDQILIE [K41L] | 2.86 kcal/mol
KKVTINGVEIKFNNPEEAVKFALELAKRLNLRIEFHGDQIMIE [K41M] | 2.71 kcal/mol
KKVTINGVEIKFNNPEEAVKFALELAKRLNLRIEFHGDQINIE [K41N] | 2.52 kcal/mol
KKVTINGVEIKFNNPEEAVKFALELAKRLNLRIEFHGDQIPIE [K41P] | 1.3 kcal/mol

Variant | folding stability dG
KKVTINGVEIKFNNPEEAVKFALELAKRLNLRIEFHGDQIQIE [K41Q] | 2.27 kcal/mol
KKVTINGVEIKFNNPEEAVKFALELAKRLNLRIEFHGDQIRIE [K41R] | 2.8 kcal/mol
KKVTINGVEIKFNNPEEAVKFALELAKRLNLRIEFHGDQISIE [K41S] | 2.46 kcal/mol
KKVTINGVEIKFNNPEEAVKFALELAKRLNLRIEFHGDQITIE [K41T] | 2.69 kcal/mol
KKVTINGVEIKFNNPEEAVKFALELAKRLNLRIEFHGDQIVIE [K41V] | 3 kcal/mol
KKVTINGVEIKFNNPEEAVKFALELAKRLNLRIEFHGDQIWIE [K41W] | 2.85 kcal/mol
KKVTINGVEIKFNNPEEAVKFALELAKRLNLRIEFHGDQIYIE [K41Y] | 2.94 kcal/mol
KKVTINGVEIKFNNPEEAVKFALELAKRLNLRIEFHGDQIKAE [I42A] | 1.29 kcal/mol
KKVTINGVEIKFNNPEEAVKFALELAKRLNLRIEFHGDQIKDE [I42D] | 1.36 kcal/mol
KKVTINGVEIKFNNPEEAVKFALELAKRLNLRIEFHGDQIKEE [I42E] | 1.3 kcal/mol
KKVTINGVEIKFNNPEEAVKFALELAKRLNLRIEFHGDQIKFE [I42F] | 2.22 kcal/mol
KKVTINGVEIKFNNPEEAVKFALELAKRLNLRIEFHGDQIKGE [I42G] | 1.26 kcal/mol
KKVTINGVEIKFNNPEEAVKFALELAKRLNLRIEFHGDQIKHE [I42H] | 1.63 kcal/mol
KKVTINGVEIKFNNPEEAVKFALELAKRLNLRIEFHGDQIKKE [I42K] | 1.43 kcal/mol
KKVTINGVEIKFNNPEEAVKFALELAKRLNLRIEFHGDQIKLE [I42L] | 3.07 kcal/mol
KKVTINGVEIKFNNPEEAVKFALELAKRLNLRIEFHGDQIKME [I42M] | 2.25 kcal/mol
KKVTINGVEIKFNNPEEAVKFALELAKRLNLRIEFHGDQIKNE [I42N] | 1.74 kcal/mol
KKVTINGVEIKFNNPEEAVKFALELAKRLNLRIEFHGDQIKPE [I42P] | 1.27 kcal/mol
KKVTINGVEIKFNNPEEAVKFALELAKRLNLRIEFHGDQIKQE [I42Q] | 1.24 kcal/mol
KKVTINGVEIKFNNPEEAVKFALELAKRLNLRIEFHGDQIKRE [I42R] | 1.44 kcal/mol

Variant | folding stability dG
KKVTINGVEIKFNNPEEAVKFALELAKRLNLRIEFHGDQIKSE [I42S] | 1.47 kcal/mol
KKVTINGVEIKFNNPEEAVKFALELAKRLNLRIEFHGDQIKTE [I42T] | 1.38 kcal/mol
KKVTINGVEIKFNNPEEAVKFALELAKRLNLRIEFHGDQIKVE [I42V] | 2.31 kcal/mol
KKVTINGVEIKFNNPEEAVKFALELAKRLNLRIEFHGDQIKWE [I42W] | 1.58 kcal/mol
KKVTINGVEIKFNNPEEAVKFALELAKRLNLRIEFHGDQIKYE [I42Y] | 1.6 kcal/mol
KKVTINGVEIKFNNPEEAVKFALELAKRLNLRIEFHGDQIKIA [E43A] | 2.59 kcal/mol
KKVTINGVEIKFNNPEEAVKFALELAKRLNLRIEFHGDQIKIC [E43C] | 3.85 kcal/mol
KKVTINGVEIKFNNPEEAVKFALELAKRLNLRIEFHGDQIKID [E43D] | 2.5 kcal/mol
KKVTINGVEIKFNNPEEAVKFALELAKRLNLRIEFHGDQIKIF [E43F] | 3.59 kcal/mol
KKVTINGVEIKFNNPEEAVKFALELAKRLNLRIEFHGDQIKIG [E43G] | 2.8 kcal/mol
KKVTINGVEIKFNNPEEAVKFALELAKRLNLRIEFHGDQIKIH [E43H] | 2.82 kcal/mol
KKVTINGVEIKFNNPEEAVKFALELAKRLNLRIEFHGDQIKII [E43I] | 3.32 kcal/mol
KKVTINGVEIKFNNPEEAVKFALELAKRLNLRIEFHGDQIKIK [E43K] | 2.65 kcal/mol
KKVTINGVEIKFNNPEEAVKFALELAKRLNLRIEFHGDQIKIL [E43L] | 3.23 kcal/mol
KKVTINGVEIKFNNPEEAVKFALELAKRLNLRIEFHGDQIKIM [E43M] | 3.13 kcal/mol
KKVTINGVEIKFNNPEEAVKFALELAKRLNLRIEFHGDQIKIN [E43N] | 2.6 kcal/mol
KKVTINGVEIKFNNPEEAVKFALELAKRLNLRIEFHGDQIKIP [E43P] | 1.83 kcal/mol
KKVTINGVEIKFNNPEEAVKFALELAKRLNLRIEFHGDQIKIQ [E43Q] | 2.66 kcal/mol
KKVTINGVEIKFNNPEEAVKFALELAKRLNLRIEFHGDQIKIR [E43R] | 2.64 kcal/mol
